Test results published in publication PMC3493456.

Key:
[1] = biological target: DNA polymerase beta WT (242Pro) (Homo sapiens, UniProt P06746 1-335); experiment: EMSA; EMSA as described previously (ref 34); buffer, salt, pH and temperature not given in the material
[2] = biological target: DNA polymerase beta P242R (rs3136797) (Homo sapiens, UniProt P06746 1-335, P242R); experiment: as above

B1: 1-bp gapped DNA (dsDNA)
DNA 1: GCCTCGCAGCCGTCCAACCAAC
DNA 2: CAACCTCGATCCAATGCCGTCC
DNA 3: GGACGGCATTGGATCGAGGTTGAGTTGGTTGGACGGCTGCGAGGC
modifications: 5' phosphate on downstream oligo (S8)
Binder B1 has a Kd [1] of 5 nM and a Kd [2] of 5 nM.
